In the supplement of paper PMC12042874 one finds amyloid nucleation score data, which are given here for 104 substances.

± gives the uncertainty stated by the source.

A short description of this data set: amyloid nucleation score (Sup35N fusion, yeast selection) (log enrichment); library NNK2; higher = more nucleation; inactive = no reads after selection. The gist of the method:
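Output and input plasmid inserts were sequenced by Illumina after psi-negative yeast carrying Sup35N fused to peptides of 20 random codons had been induced 24 hours with 100 μM copper sulfate and grown 7 days at 30°C on medium lacking adenine and uracil. The nucleation score is the DiMSum log enrichment of output over input reads, centred on the mode score of non-aggregating sequences. Sequences with under 100 input reads were excluded.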
On to TFSLLGL, for which the amyloid nucleation score was 4.1 ± 0.064.
TFSTYSFLFVKTVI returned an amyloid nucleation score of -0.417 ± 0.2.
As to TFSVSSYRNLP, the amyloid nucleation score is -0.06 ± 0.79.
For TFVGVLNQTNH, the amyloid nucleation score stood at 2.73 ± 0.13.
Turning to TFVITLNGHSCQVGTITPRN, the amyloid nucleation score was determined as 8.012 ± 0.04.
For TFVKRIRYCFYLS the value was 6.386 ± 0.023; for TFWLIRTSHRGYRYEKVCTY, -0.017 ± 0.49; for TGALVNM, 0.13 ± 1.1.
For TGFMVTFASST the value was 0.02 ± 0.22.
TGHRTRVQTELLAFIAQVN displayed an amyloid nucleation score of -0.526 ± 0.63.
In the case of TGHWMGPSDYRQRVCH, the amyloid nucleation score result is “inactive”.
On to TGLIGEPYGWDRSTTGF, for which the amyloid nucleation score was 0.17 ± 0.43.
TGVKRIMSGSIIFPFLAVSF gave an amyloid nucleation score of -0.751 ± 1.1.
For THIAVIGISGTDEENLKLGR the value was 6.439 ± 0.026; for THIFVWNHFNLLRYTTKFLP, -0.304 ± 0.4.
For THLSWQKMWFLIVHALKICL the value was “inactive”.
As for THLWVNSFMIDPFRSESAAT, the amyloid nucleation score is -0.499 ± 0.54.
THPEFSIPIGRHHYGG yielded an amyloid nucleation score of -0.836 ± 0.29.
THWMKRRVVA came in with an amyloid nucleation score of 1.33 ± 0.17.
On to TIACLEINPHAMSDYMRLCH, for which the amyloid nucleation score is -0.842 ± 0.49.
For TICGSCT the value was 0.045 ± 0.79; for TIDFWVRFYVRFYSRDGFYY, -2.33 ± 0.78.
Substance TIDKISCNIRLRPVYMLLNA returned an amyloid nucleation score of 0.342 ± 0.56.
TIEGALSSS: the amyloid nucleation score was 0.931 ± 0.22.
In turn, TIFSNFGSMSLIGHGIEQVI returned an amyloid nucleation score of -1.39 ± 0.76.
TIILG came in with an amyloid nucleation score of -0.637 ± 0.27.
Take TIMNYTGCYFGPVGPDRDLG: the amyloid nucleation score was determined as 6.824 ± 0.042.
For TIPVRPTMEYCTQLLTLLQ, the amyloid nucleation score was determined as 0.293 ± 0.47.
In the case of TIQGLFRFSADVRTCAFMGS, the amyloid nucleation score was 2.33 ± 0.15.
For TISFELSGMGIPSLWICGSR the value was 0.252 ± 0.65; for TITILV, 0.089 ± 0.23; for TIVYWSTTRTTAPGDDRESV, 5.31 ± 0.062.
For TIYRSSSNNSQEHSLNLMFG the value was “inactive”.
Substance TKMYVD returned an amyloid nucleation score of -0.573 ± 1.1.
In the case of TKSGCRGIGHSSVVSS, the amyloid nucleation score stood at 1.19 ± 0.37.
For TLAWGSGELTTLTADEDLPS the value was 0.58 ± 0.19; for TLAYMNGVA, -0.928 ± 0.63.
For TLCLMVVFKSRYCSFRIHMM the value was 0.21 ± 1; for TLDIALKGG, 0.271 ± 0.25.
For TLFLSMLLMASSCYMTCCGD the value was -0.119 ± 0.55; for TLGSLLLLMSWVEGLQKHLI, 0.888 ± 0.48.
As to TLHCRSILGELLYVDMVKDD, the amyloid nucleation score is -0.297 ± 0.46.
Consider TLMIYCFFSGFLKGVWMM, for which the amyloid nucleation score turned out to be 0.053 ± 0.8.
TLMKVRVYSSYGKVHVGSLA yielded an amyloid nucleation score of 5.03 ± 0.08.
TLNTNMRSLLRI: the amyloid nucleation score result is “inactive”.
As for TLSTGIFLLHLAYSSLSIDS, the amyloid nucleation score was 0.637 ± 0.35.
For TLTKKLHIGMLYPYHTLMLR the value was -0.596 ± 0.76; for TLVHSKF, 3.01 ± 0.089.
Turning to TLVNCVSMWWALHSVANGNG, the amyloid nucleation score was found to be 3.3 ± 0.11.
Take TLVVRGHC: the amyloid nucleation score was 2.14 ± 0.11.
In turn, TLYDGWLVGPVERRFVIRAL showed an amyloid nucleation score of 1.08 ± 0.21.
With TLYMFMPMLFNVIPEVRWPP, the amyloid nucleation score turned out to be 9.03 ± 0.071.
Regarding TLYRPMTIMFMRVHHEVRWF, the amyloid nucleation score turned out to be 6.195 ± 0.04.
Consider TMKWLCN, for which the amyloid nucleation score was found to be 4.69 ± 0.054.
In the case of TMNIKLWGAGTRRMFEMEPG, the amyloid nucleation score was found to be 2.35 ± 0.22.
In the case of TMQIFMKSMINSGICSTYHL, the amyloid nucleation score came out at 3.47 ± 0.08.
For TMYWTAMMISGDLACQIGSR the value was 6.127 ± 0.046; for TNATSGGHMLMIYEDFNVYL, 2.49 ± 0.069; for TNCINM, 5.49 ± 0.055.
In turn, TNCSIMGTFSYFNDCSLGGT displayed an amyloid nucleation score of 5.247 ± 0.051.
For TNEAIEMS the value was “inactive”; for TNIFR, -0.599 ± 1; for TNLMAFLRPFAVVTRND, -0.355 ± 0.76.
As to TNRIGFFLFCTAV, the amyloid nucleation score is -0.049 ± 0.76.
As to TNSDSSTQKVIVMSLNAVVP, the amyloid nucleation score is 6.11 ± 0.049.
For the substance TNSMNGFFFR, the amyloid nucleation score is -1.81 ± 1.
The substance TNWVDWESYISCGGNGFGGC registered an amyloid nucleation score of -0.92 ± 0.39.
For TPAWCYPTGIGLIPPEWLGQ, the amyloid nucleation score was 0.605 ± 0.23.
In turn, TPDGIRLSVAHCS yielded an amyloid nucleation score of 0.764 ± 0.24.
Take TPFGTVECTQLLLSTSRWLF: the amyloid nucleation score was -0.26 ± 1.
TPLLSWVTLFCCLGSPCLGT displayed an amyloid nucleation score of 0.176 ± 0.76.
On to TPPWQGSDWCGNHCNWQGPM, for which the amyloid nucleation score was 0.247 ± 0.8.
For TPWSSVWSVALSGARMGPRS the value was 3.71 ± 0.079; for TPYGFSFRTRYMKQADLALS, -0.315 ± 0.33.
As for TQFISFRYYHNVDEIHYVVN, the amyloid nucleation score entry is “inactive”.
TQIFYSLRILLVDKLVSCGA showed an amyloid nucleation score of -0.787 ± 0.39.
Take TQRVGGIRW: the amyloid nucleation score came out at 0.105 ± 0.24.
In turn, TRCFQILPCYRI displayed an amyloid nucleation score of -0.624 ± 0.76.
In turn, TRCKGHYVWSLQSFRCSIVK displayed an amyloid nucleation score of -0.512 ± 0.78.
TRDCLYFVLLILIIYLFGLR showed an amyloid nucleation score of 3.12 ± 0.14.
As to TRDIELWLGWNRKEVCVLLE, the amyloid nucleation score result is “inactive”.
On to TRLDVQLGHGIGSV, for which the amyloid nucleation score is 0.092 ± 1.1.
With TRQKACMISKASPLGSSEYA, the amyloid nucleation score entry was “inactive”.
Turning to TRRWKALRP, the amyloid nucleation score is 0.794 ± 0.2.
Substance TSCFLLILCLQMKCTSFTSS registered an amyloid nucleation score of 2.18 ± 0.11.
As to TSDWRLYFRLTDVVIGLW, the amyloid nucleation score amounted to 1.86 ± 0.083.
Consider TSFCTSVIGIVIHQDFAVDG, for which the amyloid nucleation score amounted to 5.574 ± 0.045.
Turning to TSFFPIILKRVPSIKLGTRK, the amyloid nucleation score result is “inactive”.
In turn, TSGDCYMNGILNNGWGQ came in with an amyloid nucleation score of -1.42 ± 0.78.
The substance TSKRVFSRVESGTQVLGNEG displayed an amyloid nucleation score of -0.053 ± 0.5.
For TSLFI the value was 0.487 ± 0.6.
With TSPGTGIVGDIYLHYIFVKW, the amyloid nucleation score turned out to be 0.327 ± 0.46.
For the substance TSQLRMDGSSILMAHLKCYR, the amyloid nucleation score was determined as 0.441 ± 0.26.
The substance TSRDWCLDVPWKSHYYEVKY displayed an amyloid nucleation score of -0.518 ± 0.48.
As for TSRKGNSSHL, the amyloid nucleation score is -1.54 ± 0.75.
Consider TSRRHYIVSVNLMK, for which the amyloid nucleation score entry was “inactive”.
In turn, TSRYTHNCMPIDCMIMHMGI returned an amyloid nucleation score of 1.77 ± 0.14.
As to TSSTTGSYLWEDEDYSYNFF, the amyloid nucleation score is 1.68 ± 0.12.
For TSVIGKSGPRYLFLEC the value was 0.299 ± 0.8; for TSVNALFRWPRLFSYRREPV, 0.202 ± 0.79.
In turn, TSVYPRGYFPVSCACYFLLE had an amyloid nucleation score of -1.3 ± 0.48.
Regarding TTDRTDCLSFQLNFTDMKRG, the amyloid nucleation score came to 6.08 ± 0.073.
For TTHLLFLFLALKNNPRTILT the value was -0.294 ± 1.1.
TTPLTRRFRRFHVW gave an amyloid nucleation score of 1.02 ± 0.26.
